# Molecular target: HLA-A*02:01 (Homo sapiens, UniProt P04439, D140Y/D185E/D98H/E176V/E277Q/G131W/G231S/I119V/I121R/I166T/I218V/L300P/L318F/N151K/N90K/P208A/P217A/Q86G/Q94H/R138H/R169H/T345S)
# Experiment: MHC binding assay (UV-ligand exchange, β2m ELISA, peptide exchange yield)
# Conditions: binding to HLA-A*02:01
# From the text: Candidate peptides for T cell based therapies according to the present invention were further tested for their MHC binding capacity (affinity). The individual peptide-MHC complexes were produced by UV-ligand exchange, where a UV-sensitive peptide is cleaved upon UV-irradiation, and exchanged with the peptide of interest as analyzed. Only peptide candidates that can effectively bind and stabilize the peptide-receptive MHC molecules prevent dissociation of the MHC complexes. To determine the yield of the exchange reaction, an ELISA was performed based on the detection of the light chain (β2m) of stabilized MHC complexes. The assay was performed as generally described in Rodenko et al. (Rodenko et al., 2006).
# 96 well MAXISorp plates (NUNC) were coated over night with 2 ug/ml streptavidin in PBS at room temperature, washed 4× and blocked for 1 h at 37° C. in 2% BSA containing blocking buffer. Refolded HLA-A*02:01/MLA-001 monomers served as standards, covering the range of 15-500 ng/ml. Peptide-MHC monomers of the UV-exchange reaction were diluted 100 fold in blocking buffer. Samples were incubated for 1 h at 37° C., washed four times, incubated with 2 ug/ml HRP conjugated anti-β2m for 1 h at 37° C., washed again and detected with TMB solution that is stopped with […]. Absorption was measured at 450 nm. Candidate peptides that show a high exchange yield (preferably higher than 50%, most preferred higher than 75%) are generally preferred for a generation and production of antibodies or fragments thereof, and/or T cell receptors or fragments thereof, as they show sufficient avidity to the MHC molecules and prevent dissociation of the MHC complexes.
# Table 11: MHC class I binding scores. Binding of HLA-class I restricted peptides to HLA-A*02:01 was ranged by peptide exchange yield: ≥10%=+; ≥20%=++; ≥50=+++; ≥75%=++++
row,"Peptide Exchange (MHC class I binding score, peptide exchange yield)",Substance
1,“++” (>20% = ++),185 (VMDDQRDLI; listed as Homo sapiens) [compound 185]
2,“+++” (>50 = +++),292 (AAALIIHHV; listed as Homo sapiens) [compound 292]
3,“+++” (>50 = +++),302 (ILQDLTFVHL; listed as Homo sapiens) [compound 302]
4,“+++” (>50 = +++),46 (YIIDSAQAV; listed as Homo sapiens) [compound 46]
5,“+++” (>50 = +++),117 (LLILENILL; listed as Homo sapiens) [compound 117]
6,“+++” (>50 = +++),156 (SLNIGDVQL; listed as Homo sapiens) [compound 156]
7,“++++” (>75% = ++++),36 (FILTHVDQL; listed as Homo sapiens) [compound 36]
8,“++” (>20% = ++),123 (LLLAEAELLTL; listed as Homo sapiens) [compound 123]
9,“+++” (>50 = +++),190 (VVMGTVPRL; listed as Homo sapiens) [compound 190]
10,“++” (>20% = ++),28 (AVLHLLLSV; listed as Homo sapiens) [compound 28]
11,“+++” (>50 = +++),120 (AIDAALTSV; listed as Homo sapiens) [compound 120]
12,“++” (>20% = ++),103 (KLGGTPAPA; listed as Homo sapiens) [compound 103]
13,“+++” (>50 = +++),289 (ILEEQPMDMLL; listed as Homo sapiens) [compound 289]
14,“+++” (>50 = +++),361 (ILQEFESKL; listed as Homo sapiens) [compound 361]
15,“+++” (>50 = +++),104 (KLILLDTPLFL; listed as Homo sapiens) [compound 104]
16,“+++” (>50 = +++),39 (FLDALLTDV; listed as Homo sapiens) [compound 39]
17,“+++” (>50 = +++),255 (YLFEEAISM; listed as Homo sapiens) [compound 255]
18,“+++” (>50 = +++),252 (NLLDPGSSYLL; listed as Homo sapiens) [compound 252]

row,"Peptide Exchange (MHC class I binding score, peptide exchange yield)",Substance
1,“++” (>20% = ++),87 (HQIEAVDGEEL; listed as Homo sapiens) [compound 87]
2,“+++” (>50 = +++),13 (VVDGMPPGV; listed as Homo sapiens) [compound 13]
3,“++” (>20% = ++),166 (TLDPNQVSL; listed as Homo sapiens) [compound 166]
4,“+++” (>50 = +++),358 (FLTDYLNDL; listed as Homo sapiens) [compound 358]
5,“+++” (>50 = +++),375 (VLWFKPVEL; listed as Homo sapiens) [compound 375]
6,“+++” (>50 = +++),263 (SQWEDIHVV; listed as Homo sapiens) [compound 263]
7,“+++” (>50 = +++),171 (TLVPPAALISI; listed as Homo sapiens) [compound 171]
8,“+++” (>50 = +++),315 (LVYEAPETV; listed as Homo sapiens) [compound 315]
9,“+++” (>50 = +++),53 (FLWQHVELVL; listed as Homo sapiens) [compound 53]
10,“++” (>20% = ++),97 (LLFATQITL; listed as Homo sapiens) [compound 97]
11,“++” (>20% = ++),65 (GLDDMKANL; listed as Homo sapiens) [compound 65]
12,“+++” (>50 = +++),189 (VMLEMTPEL; listed as Homo sapiens) [compound 189]
13,“+++” (>50 = +++),151 (SLFDSAYGA; listed as Homo sapiens) [compound 151]
14,“+++” (>50 = +++),70 (FVPDTPVGV; listed as Homo sapiens) [compound 70]
15,“++++” (>75% = ++++),43 (FLLGPEALSFA; listed as Homo sapiens) [compound 43]
16,“+++” (>50 = +++),377 (VVDGTCVAV; listed as Homo sapiens) [compound 377]
17,“++” (>20% = ++),246 (KLDETGVAL; listed as Homo sapiens) [compound 246]
18,“++” (>20% = ++),162 (SMKDDLENV; listed as Homo sapiens) [compound 162]

# More lines, now with the values behind:
row,Substance,"Peptide Exchange (MHC class I binding score, peptide exchange yield)"
1,224 (AMEALVVEV; listed as Homo sapiens) [compound 224],“+++” (>50 = +++)
2,219 (ALLNLLESA; listed as Homo sapiens) [compound 219],“+++” (>50 = +++)
3,118 (RLLILENILL; listed as Homo sapiens) [compound 118],“+++” (>50 = +++)
4,173 (TVIENIHTI; listed as Homo sapiens) [compound 173],“++” (>20% = ++)
5,369 (RLLDLENSLLGL; listed as Homo sapiens) [compound 369],“+++” (>50 = +++)
6,92 (ILEPLNPLL; listed as Homo sapiens) [compound 92],“+++” (>50 = +++)
7,274 (VLLEYHIAYL; listed as Homo sapiens) [compound 274],“+++” (>50 = +++)
8,73 (GLLEVISALQL; listed as Homo sapiens) [compound 73],“+++” (>50 = +++)
9,235 (GLDDLLLFL; listed as Homo sapiens) [compound 235],“+++” (>50 = +++)
10,176 (VLAEQNIIPSA; listed as Homo sapiens) [compound 176],“+++” (>50 = +++)
11,8 (ALAASALPALV; listed as Homo sapiens) [compound 8],“+++” (>50 = +++)
12,139 (NLTDVVEKL; listed as Homo sapiens) [compound 139],“+++” (>50 = +++)
13,370 (SIFASPESV; listed as Homo sapiens) [compound 370],“+++” (>50 = +++)
14,64 (KLLESVASA; listed as Homo sapiens) [compound 64],“+++” (>50 = +++)
15,288 (GLAESTGLLAV; listed as Homo sapiens) [compound 288],“+++” (>50 = +++)
16,133 (YLLSGDISEA; listed as Homo sapiens) [compound 133],“+++” (>50 = +++)
17,58 (YIQQGIFSV; listed as Homo sapiens) [compound 58],“+++” (>50 = +++)
18,234 (GLDDAEYAL; listed as Homo sapiens) [compound 234],“++” (>20% = ++)
19,204 (GLLQINDKIAL; listed as Homo sapiens) [compound 204],“+++” (>50 = +++)
20,27 (AVLGLVWLL; listed as Homo sapiens) [compound 27],“+++” (>50 = +++)
21,249 (LLPTGVFQV; listed as Homo sapiens) [compound 249],“+++” (>50 = +++)
22,241 (ILGDILLKV; listed as Homo sapiens) [compound 241],“+++” (>50 = +++)
23,330 (VLMWEIYSL; listed as Homo sapiens) [compound 330],“+++” (>50 = +++)
24,324 (SLYSALQQA; listed as Homo sapiens) [compound 324],“+++” (>50 = +++)
